According to the supplement of paper PMC7125110:
± gives the standard error. This sample holds only a part of the variants without activity.

B1: glmS ribozyme (parent)
chain: AUAAAAGCGCCAGAACUACAGAAAUGUAGUUGACGAGGAGGAGGUUUAUCGAAUUUUCGGCGGAUGCCUCCAAA

Experiments:
Details in all cases: with glucosamine-6-phosphate
glucosamine-6-phosphate [1] = variants of: B1; assay: self-cleavage kobs at 640 uM GlcN6P; higher = faster cleavage; RNA array
How it was run: (§1)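 Ribozyme variants carrying barcodes were transcribed in situ on sequenced MiSeq chips by E. coli RNA polymerase and tracked at 37 °C with a hybridised Cy3 probe. They were exposed to 40 μM to 10 mM glucosamine-6-phosphate in HEPES/KCl/Mg(OAc)2 buffer. kobs came from exponential decay fits of normalised per-tile medians, and kcat and KM from weighted Michaelis–Menten fits.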

glucosamine-6-phosphate [2] = variants of: B1; assay: self-cleavage kobs at 2500 uM GlcN6P; higher = faster cleavage; RNA array
How it was run: as §1

glucosamine-6-phosphate [3] = variants of: B1; assay: self-cleavage kobs at 10000 uM GlcN6P; higher = faster cleavage; RNA array
How it was run: as §1

Row | Variant | self-cleavage kobs at 640 uM GlcN6P (glucosamine-6-phosphate [1]) [s⁻¹] | self-cleavage kobs at 2500 uM GlcN6P (glucosamine-6-phosphate [2]) [s⁻¹] | self-cleavage kobs at 10000 uM GlcN6P (glucosamine-6-phosphate [3]) [s⁻¹]
1 | G13A G29C G66U | < 1e-05 | – | –
2 | G13C G32A U45A A52U G60A G62C A64G C68U | < 1e-05 | < 1e-05 | –
3 | G13A G32C G43C C68G | 7.7e-05 ± 2.2e-05 | 0.000154 ± 5e-05 | –
4 | A12G G29U G37C | < 1e-05 | < 1e-05 | –
5 | U31C A39C G51C | < 1e-05 | – | –
6 | G13U A15U G32U G62C C68A | 7.42e-05 ± 3.5e-05 | – | –
7 | C8A C11U G60C C67A | < 1e-05 | < 1e-05 | < 1e-05
8 | C8U G29A U31A G37U A52G C71G | 0.0078 ± 0.0033 | – | –
9 | A15U U46G A53U C67U | 6.64e-05 ± 1.4e-05 | – | –
10 | G13A C34A C67U C70G | < 1e-05 | < 1e-05 | –
11 | C11G G44U U46G U47A G59A A64U C67A | < 1e-05 | – | –
12 | G7A A52G U57A | < 1e-05 | < 1e-05 | –
13 | A36U G43A | < 1e-05 | < 1e-05 | < 1e-05
14 | C8U C50G G51U U56C | < 1e-05 | – | –
15 | G32A A53C C58U C71A | < 1e-05 | – | –
16 | U47A C58U U65C | < 1e-05 | – | –
17 | C8A G35U C70G | 0.000526 ± 0.0002 | – | 7.27e-05 ± 2.4e-05
18 | C16G U46A U49G C67G U69G C71G | < 1e-05 | – | –
19 | G7U G40A G59U | < 1e-05 | – | –
20 | A52G G66A | 0.000162 ± 3e-05 | 0.000203 ± 4.6e-05 | 0.000481 ± 0.00017
21 | A15G U45A A53G | 0.0131 ± 0.0027 | – | –

Row | Variant | self-cleavage kobs at 640 uM GlcN6P (glucosamine-6-phosphate [1]) [s⁻¹] | self-cleavage kobs at 2500 uM GlcN6P (glucosamine-6-phosphate [2]) [s⁻¹] | self-cleavage kobs at 10000 uM GlcN6P (glucosamine-6-phosphate [3]) [s⁻¹]
22 | G35C G40U A52U G63U | < 1e-05 | < 1e-05 | –
23 | A6U G9C C16G C71U | < 1e-05 | – | –
24 | A14C G35U C61A | < 1e-05 | – | –
25 | A12C C58U C70U | 6.75e-05 ± 2.5e-05 | 7.09e-05 ± 3.2e-05 | –
26 | A14C G43U U56A C68U | 9.14e-05 ± 2.6e-05 | 0.000133 ± 3.7e-05 | –
27 | C50G A52U | < 1e-05 | – | < 1e-05
28 | C8U A12C U49A | < 1e-05 | – | –
29 | G7A C16G U30G G44U A52G | < 1e-05 | < 1e-05 | –
30 | A42U U69C | 0.0106 ± 0.0031 | 0.00357 ± 0.0013 | –
31 | G7A G40U C58U | < 1e-05 | < 1e-05 | –
32 | A15U C58U U69A | 0.000113 ± 2.4e-05 | 0.000115 ± 3.3e-05 | –
33 | A6C U31C C70A | 7.34e-05 ± 3e-05 | – | –
34 | G29A G35C G40A | < 1e-05 | – | –
35 | U31G G37C G38C | < 1e-05 | < 1e-05 | –
36 | A15U G35A C68U | < 1e-05 | < 1e-05 | –
37 | A42G G43A G44C | < 1e-05 | < 1e-05 | –
38 | A12U A33G A48C | < 1e-05 | < 1e-05 | –
39 | U55A U65C C68U | 0.000206 ± 8.7e-05 | 0.000114 ± 3.5e-05 | –
40 | C8A U55G G63U | < 1e-05 | – | –
41 | U30C G32U C34G G51U | < 1e-05 | < 1e-05 | –
42 | G7U A36G G38U | < 1e-05 | – | –

Row | Variant | self-cleavage kobs at 640 uM GlcN6P (glucosamine-6-phosphate [1]) [s⁻¹] | self-cleavage kobs at 2500 uM GlcN6P (glucosamine-6-phosphate [2]) [s⁻¹] | self-cleavage kobs at 10000 uM GlcN6P (glucosamine-6-phosphate [3]) [s⁻¹]
43 | A6U G40C C61U G62C | < 1e-05 | – | –
44 | G29C A33U G35C A52U | < 1e-05 | < 1e-05 | –
45 | G37C G40C U49A | < 1e-05 | < 1e-05 | –
46 | G38C G40U U46A | < 1e-05 | – | –
47 | A33C G41U U47G U65C C68A | < 1e-05 | – | –
48 | A6U A39C U56C C67G | < 1e-05 | – | –
49 | G13C G37U G43C | < 1e-05 | < 1e-05 | –
50 | C34A G38U U54A | < 1e-05 | < 1e-05 | –
51 | A42C U47G U57C | < 1e-05 | < 1e-05 | –
52 | A6U U31A G35U A42U G62U | < 1e-05 | < 1e-05 | –
53 | G13U U56C A64G | < 1e-05 | – | –
54 | U46A U54G C70A | 5.86e-05 ± 2.1e-05 | 0.000289 ± 7.5e-05 | –
55 | A33C G66C | < 1e-05 | – | –
56 | C16G G32U C61U | < 1e-05 | < 1e-05 | –
57 | A39C C58G G63U U65A C71G | < 1e-05 | < 1e-05 | < 1e-05
58 | G40U U55A C71A | 0.00279 ± 0.00086 | – | 0.0227 ± 0.0049
59 | C11U A36C A39G C67G | < 1e-05 | < 1e-05 | –
60 | C8A G13A C61U G62C C70A | < 1e-05 | < 1e-05 | –
61 | A42G A64G C71G | 0.000615 ± 0.00014 | 0.00107 ± 0.0003 | 0.000757 ± 0.00025
62 | C11U G29U G37C C70A | 0.000166 ± 5.6e-05 | – | –
63 | C34A U54A A64C | < 1e-05 | < 1e-05 | –
